Results taken from patent US12202907B2, “Nucleic acids encoding and methods of producing proteins comprising antibody chains” (Innate Pharma, priority 2018, dated 2025).

Target: T1, Human CD39-L4 (NTPDase5, ENTPD5) (Homo sapiens, UniProt O75356)
T1 sequence (O75356 25-428): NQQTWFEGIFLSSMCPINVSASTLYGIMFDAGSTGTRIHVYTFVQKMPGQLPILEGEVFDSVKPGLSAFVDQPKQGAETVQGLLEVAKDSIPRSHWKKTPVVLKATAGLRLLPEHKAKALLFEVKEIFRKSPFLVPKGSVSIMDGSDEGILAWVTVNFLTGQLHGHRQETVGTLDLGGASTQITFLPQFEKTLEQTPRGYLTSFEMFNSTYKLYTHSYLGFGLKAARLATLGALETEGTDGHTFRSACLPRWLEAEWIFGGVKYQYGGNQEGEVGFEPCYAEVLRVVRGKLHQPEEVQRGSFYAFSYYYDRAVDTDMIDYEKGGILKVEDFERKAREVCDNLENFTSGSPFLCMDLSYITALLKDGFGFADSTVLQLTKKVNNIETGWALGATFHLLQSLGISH
Assay: ELISA titration on CD39-L4
Format: binding
Description: Antibody I-394 was tested for binding to recombinant human CD39 isoforms (Rec-huCD39 isoforms) having amino acid sequences shown below were coated in 96-well plate in PBS 1X at 500 ng/ml or 1 μg/ml at 4° C. overnight. Wells were washed in TBS Tween® 20 (polysorbate 20), and further saturated 2H at RT in TBS Blocking buffer. Dose range concentration of primary antibody was incubated in TBS blocking buffer for 2 h at RT. Wells were washed in TBS Tween® 20 (polysorbate 20). […] Optical density was measured on Enspire™ at OD=450.

I-394: anti-CD39 antibody, VH SEQ ID NO: 6, VL SEQ ID NO: 7, human IgG1 Fc with L234A/L235E/G237A/A330S/P331S
binding to CD39-L4 in ELISA: not to any of the isoforms CD39-L1, -L2, -L3 or -L4
